What is called EC50 is the concentration that produces a half-maximal response. One may read the Kd as the free concentration of one partner at which half of the binding sites on the other are occupied at equilibrium, for simple one-to-one binding. For orientation: koff means a measure of how fast the partners let go of each other. As usually defined, the kon is the rate constant with which the complex forms. The term EC50 (read off the curve) denotes the concentration needed to bring the measured effect to its halfway point.

Assay [1] addresses T1, recombinant human CD22 encompassing domains 2-4 (CD22d2-4) (human, UniProt P20273 139-417).
T1 construct: also called domain 2-4 of recombinant human CD22 antigen
The assay can be described thus: direct ELISA, plate coated with CD22d2-4. (In an ELISA, binding on a coated surface is turned into a signal by an enzyme label.)

The target in assay [2] is T2, LRID (murine IgG anti-idiotype antibody against the antigen binding site of SM03 and SM06).
T2 construct: An scFv from a phage library, re-engineered as a murine IgG; also called anti-idiotype antibody for SM03; surrogate antigen for CD22
The assay can be described thus: direct ELISA, plate coated with LRID.

In assay [3] the target is LRID Fab fused to the GPI signal sequence from decay accelerating factor (DAF), on SP2/0 cells (Fab-GPI). The assay can be described thus: cell-based or functional assay.
Assay [4] concerns the target LRID Fab fused to the transmembrane portion of glycophorin A, on SP2/0 cells (Fab-GlycoA). The experiment in a line: cell-based or functional assay.
The target of assay [5] is T3, human recombinant CD22 (PeproTech) (human, UniProt P20273 20-687, limits assumed).
T3 construct: Bought protein immobilized on a CM5 chip; also called recombinant human CD22 antigen; human CD22 antigen
The experiment in a line: SPR (BIAcore), CD22 immobilized on CM5 chip, SM03 injected. As for the experimental part:
Affinity of anti-CD22 antibodies against human CD22 was performed using BIAcore (GE Healthcare Life Sciences, Piscataway, NJ) according to standard procedures. Briefly, human recombinant CD22 (20 μg/ml, PeproTech, Rocky Hill, NJ) was immobilized on carboxymethylated dextran-coated CM5 sensor chip. The chip surface was firstly activated with N-ethyl-N′-(3-[…]) carbodiimide hydrochloride (EDC) and N-hydroxysuccinimide (NHS). […] The dissociation was studied by washing with running buffer for 3 min. The chip surface was then regenerated by injection with 50 mM glycine-Cl for 60 s. Kinetic parameters including ka (association rate constant) and kd (dissociation rate constant) were estimated using the BIA evaluation software. The specific binding curves were normalized by subtracting the control curve.
Background: In SPR one partner is held on a chip, and binding of the other changes the refractive index at the surface.

In assay [6] the target is T1, recombinant human CD22 encompassing …. The experiment in a line: ELISA, plate coated with refolded CD22d2-4, % Binding. As for the experimental part: Preliminary epitope mapping was done by expressing different combinations of extracellular domains encompassing the human CD22 sequence in bacteria and the refolded recombinant proteins were tested for binding to SM03 in an ELISA assay. […] There are 6 extracellular domains for human CD22 antigen that are expressed on the surface of matured B cells. […] Briefly, the DNA sequence encoding different domain regions of human CD22 were cloned into a pET bacterial expression vector preceded with a pelB sequence (as described in Ward et al. (1989) Nature 341:544-546). The expression vectors were used to transform bacterial host cell BL21 (DE3) pLysS (Promega, Madison, WI) using standard techniques in molecular biology: expression of the transfected genes were induced by the addition of 1 mM of isopropyle β-D-thiogalactoside (IPTG). After incubating at 37° C. for 4 hours with orbital shaking at 250 rpm, the bacteria were pelleted by centrifugation at 6,000 rpm for 15 minutes. Cells were lysed in lysis buffer (50 mM Tris-HCl, pH 8 containing 0.1 M NaCl, 5 mM EDTA, 0.1% NaN₃, 0.5% TritonX-100, 100 μM PMSF and 1 mM DTT) with the aid of a glass homogenizer. After French press treatment, 2.5 mM MgCl₂ was added to chelate the EDTA, and 0.1 mg/ml Lysozyme and 0.01 mg/ml DNase were added and the mixture was incubated at room temperature for 20 minutes. […]

T2 sequence (VH, as listed by the source, chain 1 of 2): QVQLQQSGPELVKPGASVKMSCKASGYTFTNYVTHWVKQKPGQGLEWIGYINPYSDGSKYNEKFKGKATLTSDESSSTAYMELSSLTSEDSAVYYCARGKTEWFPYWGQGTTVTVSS
T2 sequence (VL, as listed by the source, chain 2 of 2): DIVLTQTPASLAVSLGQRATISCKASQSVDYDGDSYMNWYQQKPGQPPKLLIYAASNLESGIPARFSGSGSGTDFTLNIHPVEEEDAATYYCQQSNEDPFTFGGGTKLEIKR
LRID Fab fused to the GPI signal sequence from decay accelerating factor (DAF), on SP2/0 cells (Fab-GPI), sequence (VH, as listed by the source, chain 1 of 2): as the sequence (VH, as listed by the source, chain 1 of 2) above
LRID Fab fused to the GPI signal sequence from decay accelerating factor (DAF), on SP2/0 cells (Fab-GPI), sequence (VL, as listed by the source, chain 2 of 2): as the sequence (VL, as listed by the source, chain 2 of 2) above
LRID Fab fused to the transmembrane portion of glycophorin A, on SP2/0 cells (Fab-GlycoA), sequence (VH, as listed by the source, chain 1 of 2): as the sequence (VH, as listed by the source, chain 1 of 2) above
LRID Fab fused to the transmembrane portion of glycophorin A, on SP2/0 cells (Fab-GlycoA), sequence (VL, as listed by the source, chain 2 of 2): as the sequence (VL, as listed by the source, chain 2 of 2) above

B1: SM06 (antibody, V domains shown)
VH: EVQLVESGGGLVQPGGSLRLSCAASGFSFSIYDMSWVRQAPGKGLEWVAYISSGGGTTYYPDTVKGRFTISRDNAKNSLYLQMNSLRVEDTALYYCARHSGYGSSYGVLFAYWGQGTLVTVSS
VL: DIQLTQSPSSLSASVGDRVTISCRASQDISNYLNWYQQKPGKAPKLLIYYTSILHSGVPSRFSGSGSGTEFTLTISSLQPEDFATYFCQQGNTLPWTFGGGTKVEIKR
notes: Framework-patched (humanized) anti-CD22 antibody with human constant regions; also called framework-patched (humanized) version of SM03
Turning to B1, the EC50 in assay [1] stood at 0.14 µg/mL; in assay [2] it was 0.065 µg/mL.

B2: SM03 (antibody, V domains shown)
VH: QVQLQESGGGLVKPGGSLKLSCAASGFAFSIYDMSWVRQTPEKRLEWVAYISSGGGTTYYPDTVKGRFTISRDNAKNTLYLQMSSLKSEDTAMYYCARHSGYGSSYGVLFAYWGQGTLVTVSS
VL: DIQLTQTTSSLSASLGDRVTISCRASQDISNYLNWYQQKPDGTVKLLIYYTSILHSGVPSRFSGSGSGTDYSLTISNLEQEDFATYFCQQGNTLPWTFGGGTKLEIKR
notes: Chimeric antibody against human CD22: murine variable regions with human constant regions; The embodiments speak of an IgG1 heavy chain and kappa light chain constant region; also called anti-CD22 antibody SM03; chimeric anti-CD22 antibody
Consider B2, for which the “CMC killing of surrogate target cells, EC50” value in assay [3] was found to be 0.22 mg/mL. The “CMC killing of surrogate target cells, EC50” value in assay [4] was found to be 0.13 mg/mL. In assay [5], the Ka is 8.2e+08 M⁻¹, the Kd was 1.22 nM, the koff was found to be 0.0137 s⁻¹ and the kon is 1.13e+07 M⁻¹ s⁻¹. Moreover, in assay [6], the “EC50 (read off the curve)” value was roughly 0.02 µg/mL. Besides, the EC50 in assay [1] is 0.1 µg/mL. For the same molecule, in assay [2], the response was half-maximal at 0.08 µg/mL (EC50).
